Results on seven sequences are retold here after the DeepSol protein solubility set.

This data set is described as follows: soluble on expression in E. coli; label from the status in PepcDB or PDB records.
Turning to “MGSDKIHHHHHHMTTKYQTIISNIEQDIQKQRLKKGDKLPSIRVLSKVYYCSKDTVQRALLELKYRHLIYAVPKSGYYVLGNVSMPDNVLNLSLEDYNNMAYEDFRLCLNEALSAKDKYLFHYYHKTEGLEELREALLLYLAENSVYSNKDQLLITSGTQQALYILSQMPFPNTGKTILLEKPTYHRMEAIVAQLGLPYQTISRHFNGLDLELLESLFQTGDIKFFYTISRFSHPLGLSYSTKEKEAIVRLAQRYQVYILEDDYLGDFVKLKEPPIHYYDTHHRIIYLKSFSMSVFPALRIGALVLPSGLKPHFLTQKSLIDLDTNLLMQKALALYLENGMFQKNLRFIKRYLKQRERQLALFLKQNCPDIHYQLTPTHLVIDYTTSDSYRNFTLDKSDRIIITGKKRYLSITINQQIQSKLNSLIKNTCGKSN”, the “soluble on expression in E. coli” value is given as “not soluble”.
As for “SGANISGGSPEFDRNDDVYSRKLRLVDLPENCVALIMTRLDPPEICRLARLNRMSRRASSADFIWESKLPANYRVIAHKVFDEITLTKLIKKDLYAKLSQPNLFDDGTKELWIDKNTGRLCLSISSKALRITGIDDRRYWSHIPTDESRFQSAAYVQQIWWFEVGGEFEIQFPSGTYSLFFRIQLGKTSKRLGRRICNSEHIHGWDIKPVRFQLATSDNQQAVSLCYLNNNPGSWSHYHVGDFKVTNPDVSTGIKFSMTQIDCTHTKGGLCIDSVLILPKECAKEVIGSQ”, the entry is “soluble”.
As for “MDERRFFRDVCAEWMEQYRLTVRESTLEKTQRIINIHVLPAFGDMVINNITPNVCQKVVNKWFLEAKSYKKWLNYASMIFDYALRAEYVGRNPCTLVTMPRVQEQAGEKLEHHHHHH”, the “soluble on expression in E. coli” value was “not soluble”.
As for “MGSDKIHHHHHHMKQQYTATVVMATYNGEKNILEQLDSLKNQSKKIDEVLIWDDCSTDSTVKIIENFISENKLGETWHLQINTENLGWRKNFFNLLNAATKEIVFTCDQDDIWDASKIEVMCEAFANTDVKVLVSDYTELVEPGGLAEELKKIDSVKLPNQKAEQIIFNENNLFLRRPGCVYAIRKSFIANVNLYASEMENPVHDMAMWGSSLLSDGLYIVREELIRWRKHGQSSFKKEIDLAKKQNHFEERLNTLRRRLQRTEAAKNYLNNQPHVEEFEYKDKVLSNLIKELNMRVSLLERKKIIPILCAFFKYHHKFYFSTDIYHIMKYKIRK”, the entry is “not soluble”.
“MSNSKPVNYLTLKCLLKNMDSGMRLQLFVMFPSIQYLEKLFPLHVKYLTIKSDHITVNRTTFQLKICNKYNNFHGGYKFDFDQYGRLDRGEIEQDPDESIIDVRDGFLSKKGIPECEMETARLVHNLTLQKSQRYSTRIWESHGTILKKLSYYVPENNFIRLKIGKRVEVLEYQRKIHEAMKYLLGRLFGGRSLEANQFSIGCDTVLRVPSTLKFRIENLYTPSFKIANTLDVVNQIVDNSSLPLSSLKYSFENHIYHHPHSLVRTVKMLKLEVEMVPDYISGIVSNLQMVDEKRAHIVFLGDCTSSNFLKILAHWILEFHRDIGTYHTYQLSEAVVDEVMIFVRTNYGVMIEAGLPQTTDQITLNINDTSSLVISKFQQKEKWIFGLKMEH”: the “soluble on expression in E. coli” value was “not soluble”.
Take “GSGKNLIMIQVEALQGFVVNKSINGKEITPNLNKWINKSLYFDNYFYQVAQGNTSDAEFMSLNSLYPAQSGAAYYTYAGNTFNSIPKDLGDKGYYTAALHGYNEGFWNRNVMYKSEKFDDFYGQTSYKNDEVVGMGLSDESFLNQSLAKMKTFKQPYFSFLITLSSHYPFNDTAGYEKYTMNKLDVGEYKDTLLGNYFEGIHYTDEQLGKFLDKLDKEGLTKNSIIVLYGDHFAIPKENINQLYSFEGIKDPTDLTWYEYQKVPMFIHFPDDEHKGVNHTYSGQMDIYPTIANLYNISNNYMFGEDILNVKDGDSTNVTFRNGSFTDGK”: the “soluble on expression in E. coli” value is “not soluble”.
For “MDEVANALAVSQTMMEKMQKLEISKNYDVEKFETLLRLPARDVNTFMEKEAKKTDDEKMTDMDRRIKRIREDKTDRAARTLQKYFRKIRVKGEQNHINKRISKIPAKRRVVLLEQIRQKMGEQQPIRRFGGYQVIRAVELHKGKQKLQKDWLAKLSIDVNFHDKNLSRPNSPTHFIANSIPTLIRKKAEMKHAEKMQEIDSSIMDIYCGFQKDNLH”, the “soluble on expression in E. coli” value is recorded as “not soluble”.
